The source of these data is PMC7141177 (Journal of molecular biology, 2018).

For one assay, the target named is AKMT-ΔNTD (Toxoplasma gondii, UniProt B9Q0K5). Put plainly: isothermal titration calorimetry. It counts as binding.
Assay [1] addresses AKMT-ΔNTD (aa289–709) (Toxoplasma gondii). Put plainly: SEC-MALS. A general note: SEC sorts molecules by how far they enter the pores of the column.
The target of assay [2] is AKMT-ΔNTD-short (aa309–709) (Toxoplasma gondii). Put plainly: SEC-MALS.
In assay [3] the target is full-length T. gondii apical complex lysine (K) methyltransferase (AKMT, aa1–709) (Toxoplasma gondii). Nature of the assay: SEC-MALS.

`Nc1ncnc2c1ncn2[C@@H]1O[C@H](C[C@@H](N)CC[C@H](N)C(=O)O)[C@@H](O)[C@H]1O` [sinefungin]: the affinity on AKMT-ΔNTD, expressed as Kd, was 260 nM.
As for “AKMT-ΔNTD (aa289–709) (domain or fragment)”, the stoichiometry N (as a rule, the number of molecules, sites or subunits per partner or assembly) in assay [1] was found to be 2.
Consider “AKMT-ΔNTD-short (aa309–709) (domain or fragment)”, for which the stoichiometry N in assay [2] turned out to be 2.
“full-length T. gondii apical complex lysine (K) methyltransferase (AKMT, aa1–709) (enzyme)” showed a stoichiometry N in assay [3] of 2.
